Paper doi:10.1101/2025.10.08.681078 (bioRxiv, 2025)

Tests used:
[1] = target: endogenous mouse MLC1 (Mus musculus (Mouse)., UniProt Q8VHK5); test: co-IP
[2] = target: endogenous human MLC1 (Homo sapiens (Human)., UniProt Q15049); test: immunostaining of cells or tissue
[3] = target: Flag-tagged mouse MLC1 (mouse, UniProt Q8VHK5); test: western blot
[4] = target: Flag-tagged human MLC1 (human, UniProt Q15049); test: western blot
[5] = target: human MLC1 fused to C-terminal GFP (Homo sapiens (Human)., UniProt Q15049); test: western blot
Chain of human MLC1 fused to C-terminal GFP (Q15049 whole entry, the tested form may be a part): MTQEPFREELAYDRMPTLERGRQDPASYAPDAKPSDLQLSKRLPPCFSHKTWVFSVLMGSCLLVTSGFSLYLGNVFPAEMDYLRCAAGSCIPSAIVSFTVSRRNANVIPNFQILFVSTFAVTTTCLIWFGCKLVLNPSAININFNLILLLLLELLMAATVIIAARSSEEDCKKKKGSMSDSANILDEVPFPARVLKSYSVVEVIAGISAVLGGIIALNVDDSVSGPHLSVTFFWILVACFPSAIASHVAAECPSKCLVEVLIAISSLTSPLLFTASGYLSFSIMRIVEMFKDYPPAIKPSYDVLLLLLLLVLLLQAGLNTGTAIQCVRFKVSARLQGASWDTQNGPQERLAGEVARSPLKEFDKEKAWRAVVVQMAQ

[6] = target: mouse MLC1 fused to C-terminal GFP (Mus musculus (Mouse)., UniProt Q8VHK5); test: western blot
Chain of mouse MLC1 fused to C-terminal GFP (Q8VHK5 whole entry, the tested form may be a part): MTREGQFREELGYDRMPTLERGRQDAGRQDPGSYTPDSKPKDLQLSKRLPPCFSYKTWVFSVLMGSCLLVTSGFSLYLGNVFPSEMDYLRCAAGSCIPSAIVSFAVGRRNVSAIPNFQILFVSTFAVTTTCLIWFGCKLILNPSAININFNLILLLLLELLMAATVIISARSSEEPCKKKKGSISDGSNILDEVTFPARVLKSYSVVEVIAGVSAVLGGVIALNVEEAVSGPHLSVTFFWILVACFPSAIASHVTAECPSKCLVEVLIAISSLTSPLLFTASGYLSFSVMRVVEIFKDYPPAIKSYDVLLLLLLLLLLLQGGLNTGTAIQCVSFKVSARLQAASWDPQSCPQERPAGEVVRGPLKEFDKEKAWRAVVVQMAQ

[7] = target: chicken MLC1 fused to C-terminal GFP (Gallus gallus, UniProt A0A1D5PIT5); test: western blot
[8] = target: Flag::hMLC1::GFP (Homo sapiens (Human)., UniProt Q15049); test: immunostaining of cells or tissue
Chain of Flag::hMLC1::GFP (Q15049 whole entry): as the sequence (Q15049 whole entry, the tested form may be a part) above

[9] = target: T1, MLC1-derived peptide (antigen peptide of the cryo-EM complex) (Mus musculus); test: cryo-EM structure
T1 chain: YDRMPTLERGRQDA

Measured: binding result

Chain of endogenous mouse MLC1 (Q8VHK5 whole entry): as the sequence (Q8VHK5 whole entry, the tested form may be a part) above
Chain of Flag-tagged mouse MLC1 (Q8VHK5 whole entry): as the sequence (Q8VHK5 whole entry, the tested form may be a part) above
Chain of Flag-tagged human MLC1 (Q15049 whole entry, the tested form may be a part): as the sequence (Q15049 whole entry, the tested form may be a part) above
Chain of endogenous human MLC1 (Q15049 whole entry): as the sequence (Q15049 whole entry, the tested form may be a part) above

B1: monoclonal antibody 37E5 (anti-MLC1), whole IgG (antibody, V domains shown)
VH: QIQLVQSGPDLKKPGETVKISCKASGYTFTNYGMSWVKQAPGKVLKWMGWINTYTGEPTYADDFKGRFAFSLETSANTAYLQINNLKNEDTATYFCAREGATSGFPYWGQGTLVTVSA
VL: DIVMSQSPSSLAVSAGEKVTMSCRSSQSLLNSRTRKNYLAWYQQKPGQSPKLLIYWASTRESGVPDRFTGSGSGTDFTLTISSVQAEDLAVYYCKQSYDLPYTFGGGTKLEIK
binds: [1] | [2] | [3] | [4] | [5] | [6] | [7] | [8]

B2: 37E5 Fab fragment (Fab, V domains shown)
VH: B1 VH
VL: B1 VL
binds: [9]
